Reference: patent US20250250357A1 (NANJING ZAIMING PHARMACEUTICAL, published 2025)

T1: human MSLN-R1-his protein (human, UniProt Q13421 296-390)
T1 construct: Region 1 of human mesothelin, made in HEK293E cells, His-tagged; also called human MSLN-R1 protein; hMSLN-R1-his; not shown: His tag
T1 chain: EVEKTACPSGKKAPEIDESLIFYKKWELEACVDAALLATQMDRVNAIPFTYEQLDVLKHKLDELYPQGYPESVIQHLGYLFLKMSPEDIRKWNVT

B1: S009-F8-22.23 (antibody, human IgG1, kappa, V domains shown)
VH: QVQLKQSGPGLVQPSQSLSITCTVSGFSLFSYGVHWVRQSPGKGLEWLGVIWSGGSTDYNAAFISRLSISKDNSKSQVFFKMNSLQADDTAMYYCARNGGSMITTLYYAMDYWGQGTSVTVSS
VL: DVVMTQTPLSLPVSLGDQASISCRSSQSLVHSYGNTYLHWYLQKPGQSPKLLIYKVSNRFSGVPDRFSGSGSGTDFTLKISRVEAEDLGVYFCSQSTHIPFTFGGGTKLEIKR
B2: S009-F8-24.14 (antibody, human IgG1, kappa, V domains shown)
VH: EFQLQQSGPELVKPGASVKISCKASGYSFTDYNMNWVKLSNGKSLEWIGVIIPNYGTSSYNQKFKGKATLTVDQSSSTAYMQLNSLTSEDSAVYYCARWDNYYGSSLDYWGQGTTLTVSS
VL: DIVMTQSQKFMSTTVGDRVSITCKASQNVGTAVAWYQQKPGQSPKLLIYSASNRYTGVPDRFTGSGSGTDFILTISNMQSEDLADYFCQQYSSYPLTFGAGTKLELKR
B3: S009-F8-15.19 (antibody, human IgG1, kappa, V domains shown)
VH: EFQLQQSGPELVKPGASVKISCKASGYSFTDYNMNWVKQSNGKSLEWIGIINPYYGTTSNNQNFKGKATLTVDQSSSTAYMQLNSLTSDDSAVYYCARWLRRDAMDYWGQGTSVTVSS
VL: DIVMTPSHKFMSTSVGDRVSIACKASQDVGSSVAWYQQKPGQSPKLLIYWTSTRHTGVPDRFTGSGSGTDFTLTISNVQSEDLADYFCQQYSSYPWTFGGGTKLEIKR

Target: T1, human MSLN-R1-his protein
Experiment: ELISA on coated MSLN-R1; antibody 1 nM
Experimental: (§1) The plate was sealed with a plastic film and incubated at 4° C. overnight. The next day, the plate was washed twice with PBST, and a blocking buffer [PBS+2% (w/w) BSA] was added for blocking at room temperature for 2 h. The blocking buffer was discarded, and a chimeric antibody or negative control antibody serially diluted from 100 nM was added at 50 μL/well. After incubation at 37° C. for 2 h, the plate was washed 3 times with PBST. […] After incubation at 37° C. for 2 h, the plate was washed 5 times with PBST. A TMB substrate was added at 50 μL/well for incubation at room temperature for 5-10 min, and then a stop solution (1.0 N HCl) was added at 50 μL/well.

Binder	OD450 [OD450]
B1	2.34
B2	1.63
B3	0.54

The binders below were run against T2, human MSLN-R2-his protein (human, UniProt Q13421 391-486) (assay: ELISA on coated MSLN-R2; antibody 1 nM).
T2 construct: Region 2 of human mesothelin, made in HEK293E cells, His-tagged; also called human MSLN-R2 protein; hMSLN-R2-his; not shown: His tag
T2 sequence (Q13421 other isoform, or with tags, fused parts or gaps): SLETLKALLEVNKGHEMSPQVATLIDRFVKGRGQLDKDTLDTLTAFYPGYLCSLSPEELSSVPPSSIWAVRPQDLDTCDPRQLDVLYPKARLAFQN

Binder	OD450 [OD450]
B1	0.08
B2	0.04
B3	0.04

What follows are binders tested against T3, human MSLN-R3-his protein (human, UniProt Q13421 487-598) (assay: ELISA on coated MSLN-R3; antibody 1 nM).
T3 construct: Region 3 of human mesothelin, made in HEK293E cells, His-tagged; also called human MSLN-R3 protein; hMSLN-R3-his; not shown: His tag
T3 sequence (Q13421 495-606): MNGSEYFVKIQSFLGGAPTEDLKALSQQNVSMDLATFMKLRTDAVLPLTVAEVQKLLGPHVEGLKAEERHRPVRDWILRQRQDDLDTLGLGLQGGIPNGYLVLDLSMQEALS

Binder	OD450 [OD450]
B1	0.04
B2	0.04
B3	0.04

Target: T1, human MSLN-R1-his protein
Experiment: ELISA on coated MSLN-R1; antibody 10 nM
Experimental: as §1

Binder	OD450 [OD450]
B1	2.51
B2	2.24
B3	1.55

What follows are binders tested against T2, human MSLN-R2-his protein (assay: ELISA on coated MSLN-R2; antibody 10 nM).
Experimental: as §1

Binder	OD450 [OD450]
B1	0.11
B2	0.04
B3	0.05

The binders below were run against T3, human MSLN-R3-his protein (assay: ELISA on coated MSLN-R3; antibody 10 nM).

Binder	OD450 [OD450]
B1	0.05
B2	0.05
B3	0.05

Target: T1, human MSLN-R1-his protein
Experiment: ELISA on coated MSLN-R1; antibody 0.1 nM

Binder	OD450 [OD450]
B1	1.72
B2	0.64
B3	0.1

Target: T1, human MSLN-R1-his protein
Experiment: ELISA on coated MSLN-R1; antibody 100 nM
Experimental: as §1

Binder	OD450 [OD450]
B1	2.55
B2	2.34
B3	2.07

Each binder was assayed against T2, human MSLN-R2-his protein (assay: ELISA on coated MSLN-R2; antibody 0.1 nM).

Binder	OD450 [OD450]
B1	0.05
B2	0.04
B3	0.04

The binders below were run against T2, human MSLN-R2-his protein (assay: ELISA on coated MSLN-R2; antibody 100 nM).

Binder	OD450 [OD450]
B1	0.17
B2	0.05
B3	0.05

What follows are binders tested against T3, human MSLN-R3-his protein (assay: ELISA on coated MSLN-R3; antibody 0.1 nM).
Experimental: as §1

Binder	OD450 [OD450]
B1	0.04
B2	0.04
B3	0.04

The binders below were run against T3, human MSLN-R3-his protein (assay: ELISA on coated MSLN-R3; antibody 100 nM).
Experimental: as §1

Binder	OD450 [OD450]
B1	0.1
B2	0.06
B3	0.08

Target: T1, human MSLN-R1-his protein
Experiment: ELISA on coated MSLN-R1; antibody 0.01 nM

Binder	OD450 [OD450]
B1	0.78
B2	0.13
B3	0.05

What follows are binders tested against T2, human MSLN-R2-his protein (assay: ELISA on coated MSLN-R2; antibody 0.01 nM).

Binder	OD450 [OD450]
B1	0.04
B2	0.04
B3	0.04

Each binder was assayed against T3, human MSLN-R3-his protein (assay: ELISA on coated MSLN-R3; antibody 0.01 nM).
Experimental: as §1

Binder	OD450 [OD450]
B1	0.04
B2	0.04
B3	0.04

Target: T1, human MSLN-R1-his protein
Experiment: ELISA on coated MSLN-R1; antibody 0.001 nM

Binder	OD450 [OD450]
B1	0.36
B2	0.07
B3	0.05

Each binder was assayed against T2, human MSLN-R2-his protein (assay: ELISA on coated MSLN-R2; antibody 0.001 nM).
Experimental: as §1

Binder	OD450 [OD450]
B1	0.05
B2	0.04
B3	0.04

The binders below were run against T3, human MSLN-R3-his protein (assay: ELISA on coated MSLN-R3; antibody 0.001 nM).

Binder	OD450 [OD450]
B1	0.04
B2	0.04
B3	0.04

Target: T1, human MSLN-R1-his protein
Experiment: ELISA on coated MSLN-R1; antibody 0.0001 nM

Binder	OD450 [OD450]
B1	0.26
B2	0.05
B3	0.04

These binders were tested against T2, human MSLN-R2-his protein (assay: ELISA on coated MSLN-R2; antibody 0.0001 nM).

Binder	OD450 [OD450]
B1	0.04
B2	0.04
B3	0.05

What follows are binders tested against T3, human MSLN-R3-his protein (assay: ELISA on coated MSLN-R3; antibody 0.0001 nM).
Experimental: as §1

Binder	OD450 [OD450]
B1	0.04
B2	0.04
B3	0.04

Target: T1, human MSLN-R1-his protein
Experiment: ELISA on coated MSLN-R1; no antibody (blank)

Binder	OD450 [OD450]
B1	0.04
B2	0.04
B3	0.05

The binders below were run against T2, human MSLN-R2-his protein (assay: ELISA on coated MSLN-R2; no antibody (blank)).
Experimental: as §1

Binder	OD450 [OD450]
B1	0.04
B2	0.04
B3	0.05

Each binder was assayed against T3, human MSLN-R3-his protein (assay: ELISA on coated MSLN-R3; no antibody (blank)).

Binder	OD450 [OD450]
B1	0.04
B2	0.04
B3	0.05
